Source: US20210054076A1 (Chugai, published 2021)

Key:
human CLDN6 [1] = biological target: T1, human CLDN6 (human, UniProt P56747 1-220); experiment: cell-based or functional assay
T1 sequence: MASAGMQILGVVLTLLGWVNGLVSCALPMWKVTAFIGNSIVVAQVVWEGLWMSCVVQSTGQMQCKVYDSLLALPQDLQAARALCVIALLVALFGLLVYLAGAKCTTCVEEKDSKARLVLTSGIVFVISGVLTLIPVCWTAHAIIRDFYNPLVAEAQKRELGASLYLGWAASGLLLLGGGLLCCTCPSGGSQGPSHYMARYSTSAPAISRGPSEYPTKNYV

human CLDN4 = biological target: T2, human CLDN4 (human, UniProt O14493 1-209); experiment: FACS on Ba/F3 transfectant, antibody 20 micro g/ml, FITC anti-human IgG
T2 construct: whole, on cells; also called hCLDN4; BaF3_hCLDN4
T2 sequence (looked up): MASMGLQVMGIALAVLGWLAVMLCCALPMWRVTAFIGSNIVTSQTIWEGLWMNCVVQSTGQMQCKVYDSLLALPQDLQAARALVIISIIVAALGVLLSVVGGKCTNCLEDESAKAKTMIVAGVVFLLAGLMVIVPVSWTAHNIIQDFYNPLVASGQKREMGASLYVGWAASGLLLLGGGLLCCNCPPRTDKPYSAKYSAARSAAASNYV
Protocol: (§1) To evaluate the binding activity and specificity of the generated CLDN6-TRABs against CLDN6 and other Claudin family antigens, FACS analysis was conducted as follows. Ba/F3 transfectants stably express a kind of protein selected from human CLDN3 (hCLDN3), human CLDN4 (hCLDN4), human CLDN6 (hCLDN6), human CLDN9 (hCLDN9), mouse CLDN3 (mCLDN3), mouse CLDN4 (mCLDN4) and mouse CLDN6 (mCLDN6), were generated using similar method described in WO2008/087978, and named BaF3_hCLDN3, BaF3_hCLDN4, BaF3_hCLDN6, BaF3_hCLDN9, BaF3 mCLDN3, BaF3 mCLDN4, BaF3 mCLDN6, respectively. Each of the CLDN6-TRABs (CH01/CD3, CH02/CD3, CH03/CD3, CH04/CD3) was incubated with the Ba/F3 transfectants at an antibody concentration of 20 micro g/ml in FACS buffer (0.5% BSA containing autoMACS Rinsing Solution, Miltenyl Biotec). Binding activities of each CLDN6-TRAB to the Claudin family proteins (hCLDN3, hCLDN4, hCLDN6, hCLDN9, mCLDN3, mCLDN4, mCLDN6) were examined by incubation of FITC-conjugated goat anti human IgG (BeckmanCoulter), represented as Geo-mean value. Sample processing was conducted on FACSVerse (BD).
(§2) Claudin family proteins have two extracellular domains. The sequence of the first extracellular domain in human CLDN9 is almost the same compared with the first extracellular domain of human CLDN6. For the second extracellular domain of human CLDN9, there are only two amino acids different from the ones at their corresponding positions in human CLDN6 (FIG. 2). The glutamine at position 156 of human Claudin 6 (position 156 in the sequence shown in SEQ ID NO: 44 or 45) was substituted to leucine to make a human CLDN6 mutant comprising the same amino acid as human Claudin 9 at position 156. This human CLDN6 mutant was named as hCLDN6(Q156L) (SEQ ID NO: 53). Ba/F3 transfectant stably express hCLDN6(Q156L) was generated using similar method described in WO2008/087978. The established Ba/F3 transfectant was named BaF3_hCLDN6(Q156L). Binding activity of the generated CLDN6-TRABs against BaF3_hCLDN6(Q156L) was measured using the above mentioned FACS method and the results are shown in FIG. 1 and Table 3.

mouse CLDN6 = biological target: T3, mouse CLDN6 (mouse, UniProt Q9Z262 1-219); experiment: as above
T3 construct: whole, on cells; also called mCLDN6; BaF3_mCLDN6
T3 sequence (looked up): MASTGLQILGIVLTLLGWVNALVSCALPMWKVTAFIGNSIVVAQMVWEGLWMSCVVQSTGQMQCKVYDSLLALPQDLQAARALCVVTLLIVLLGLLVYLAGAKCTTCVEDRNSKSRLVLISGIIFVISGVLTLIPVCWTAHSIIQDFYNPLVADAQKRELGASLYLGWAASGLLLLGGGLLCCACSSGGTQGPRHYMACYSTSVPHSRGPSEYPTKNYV
Protocol: as §1, §2

mouse CLDN3 = biological target: T4, mouse CLDN3 (mouse, UniProt Q9Z0G9 1-219); experiment: as above
T4 construct: whole, on cells; also called mCLDN3; BaF3_mCLDN3
T4 sequence (looked up): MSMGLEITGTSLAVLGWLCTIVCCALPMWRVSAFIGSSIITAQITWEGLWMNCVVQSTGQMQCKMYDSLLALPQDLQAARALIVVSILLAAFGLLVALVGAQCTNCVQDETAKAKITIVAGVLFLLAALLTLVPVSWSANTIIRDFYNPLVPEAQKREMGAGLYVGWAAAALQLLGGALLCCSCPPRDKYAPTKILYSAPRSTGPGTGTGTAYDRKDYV
Protocol: as §1, §2

human CLDN3 = biological target: T5, human CLDN3 (human, UniProt O15551 1-220); experiment: as above
T5 construct: whole, on cells; also called hCLDN3; BaF3_hCLDN3
T5 sequence (looked up): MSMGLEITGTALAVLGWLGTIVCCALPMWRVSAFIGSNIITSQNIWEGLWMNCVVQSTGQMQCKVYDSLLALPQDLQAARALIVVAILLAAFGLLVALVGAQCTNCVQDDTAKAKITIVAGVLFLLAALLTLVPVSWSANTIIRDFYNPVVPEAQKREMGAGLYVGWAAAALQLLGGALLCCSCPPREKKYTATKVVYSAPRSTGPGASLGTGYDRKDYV
Protocol: as §1, §2

human CLDN6 [2] = biological target: T1, human CLDN6; experiment: as above
Protocol: as §1, §2

human CLDN6 [3] = biological target: T1, human CLDN6; experiment: cell-based or functional assay; remark: listed apart in the source

B1: CH04/CD3 (bispecific antibody, human IgG1, kappa, N297A)
heavy 1: EVQLQQSGPELVKPGASMKISCKASGYSFTGYTMNWVKQSHGKNLEWIGLINPYNGGTIYNQKFKGKATLTVDKSSSTAYMELLSLTSEDSAVYYCARDYGFVLDYWGQGTTLTVSSASTKGPSVFPLAPSSKSTSGGTAALGCLVKDYFPEPVTVSWNSGALTSGVHTFPAVLQSSGLYSLSSVVTVPSSSLGTQTYICNVNHKPSNTKVDKKVEPKSCDKTHTCPPCPAPELRGGPKVFLFPPKPKDTLMISRTPEVTCVVVDVSHEDPEVKFNWYVDGVEVHNAKTKPREEQYASTYRVVSVLTVLHQDWLNGKEYKCKVSNKALPAPIEKTISKAKGQPREPQVYTLPPSREEMTKNQVSLTCLVKGFYPSDIAVEWESNGQPENNYKTTPPYLDSDGSFFLYSKLTVDKSRWQQGNVFSCSVMHEALHNHYTQESLSLSP
light 1: DIVLTQSPSIMSVSPGEKVTITCSASSSVSYMHWFQQKPGTSPKLCIYSTSNLASGVPARFSGRGSGTSYSLTISRVAAEDAATYYCQQRSNYPPWTFGGGTKLEIKRTVAAPSVFIFPPSDEQLKSGTASVVCLLNNFYPREAKVQWKVDNALQSGNSQESVTEQDSKDSTYSLSSTLTLSKADYEKHKVYACEVTHQGLSSPVTKSFNRGEC
heavy 2: QVQLVESGGGVVQPGGSLRLSCAASGFTFSNAWMHWVRQAPGKGLEWVAQIKDKSQNYATYVAESVKGRFTISRADSKNSIYLQMNSLKTEDTAVYYCRYVHYAAGYGVDIWGQGTTVTVSSASTKGPSVFPLAPSSKSTSGGTAALGCLVKDYFPEPVTVSWNSGALTSGVHTFPAVLQSSGLYSLSSVVTVPSSSLGTQTYICNVNHKPSNTKVDKKVEPKSCDKTHTCPPCPAPELRGGPKVFLFPPKPKDTLMISRTPEVTCVVVDVSHEDPEVKFNWYVDGVEVHNAKTKPREEQYASTYRVVSVLTVLHQDWLNGKEYKCKVSNKALPAPIEKTISKAKGQPREPQVYTLPPSRKEMTKNQVSLTCLVKGFYPSDIAVEWESNGQPENNYKTTPPYLDSDGSFFLYSKLTVDKSRWQQGNVFSCSVMHEALHNHYTQKSLSLSP
light 2: DIVMTQSPLSLPVTPGEPASISCRSSQPLVHSNRNTYLHWYQQKPGQAPRLLIYKVSNRFSGVPDRFSGSGSGTDFTLKISRVEAEDVGVYYCGQGTQVPYTFGQGTKLEIKRTVAAPSVFIFPPSDEQLKSGTASVVCLLNNFYPREAKVQWKVDNALQSGNSQESVTEQDSKDSTYSLSSTLTLSKADYEKHKVYACEVTHQGLSSPVTKSFNRGEC
notes: Made by Fab arm exchange of the bivalent anti-CLDN6 antibody CH04 with the bivalent anti-CD3 antibody CD3-1; human IgG1 constant region; One anti-CLDN6 arm and one anti-CD3 arm; also called CLDN6-TRAB; CLDN6-targeted T-cell redirecting bispecific antibody
EC50 (read off the curve), Jurkat/NFAT-RE luciferase reporter, target cells HuH-7 (human CLDN6 [1]): ~0.08 nM
Geo-mean value of FACS (human CLDN4): 34
Geo-mean value of FACS (mouse CLDN6): 1790
Geo-mean value of FACS (mouse CLDN3): 27
Geo-mean value of FACS (human CLDN3): 36
Geo-mean value of FACS (human CLDN6 [2]): 3480
EC50 (read off the curve), Jurkat/NFAT-RE luciferase reporter, target cells ABC-1 (human CLDN6 [3]): ~0.06 nM
